Columns and labels:
Experiment in all cases: SPR
[1] = molecular target: eN49P7-FRv1-23 IgG1
[2] = molecular target: N49P7-FR IgG1
[3] = molecular target: N49P7 IgG1
N49P7 IgG1, sequence (heavy, as listed by the source, chain 1 of 2): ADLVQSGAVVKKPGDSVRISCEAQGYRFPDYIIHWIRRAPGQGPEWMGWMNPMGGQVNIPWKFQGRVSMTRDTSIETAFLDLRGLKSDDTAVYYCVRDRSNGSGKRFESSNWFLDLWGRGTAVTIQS
N49P7 IgG1, sequence (light, as listed by the source, chain 2 of 2): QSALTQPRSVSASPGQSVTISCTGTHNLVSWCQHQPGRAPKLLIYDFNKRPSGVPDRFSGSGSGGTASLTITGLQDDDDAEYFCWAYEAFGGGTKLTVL

N49P7-FR IgG1, sequence (VH, as listed by the source, chain 1 of 2): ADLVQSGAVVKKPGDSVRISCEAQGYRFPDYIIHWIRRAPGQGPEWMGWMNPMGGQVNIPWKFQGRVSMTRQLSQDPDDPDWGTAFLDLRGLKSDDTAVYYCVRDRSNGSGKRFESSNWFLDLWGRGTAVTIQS
N49P7-FR IgG1, sequence (VL, as listed by the source, chain 2 of 2): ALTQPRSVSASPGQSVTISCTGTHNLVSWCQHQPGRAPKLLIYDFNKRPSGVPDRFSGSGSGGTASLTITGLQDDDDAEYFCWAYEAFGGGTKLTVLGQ
eN49P7-FRv1-23 IgG1, sequence (VH, as listed by the source, chain 1 of 2): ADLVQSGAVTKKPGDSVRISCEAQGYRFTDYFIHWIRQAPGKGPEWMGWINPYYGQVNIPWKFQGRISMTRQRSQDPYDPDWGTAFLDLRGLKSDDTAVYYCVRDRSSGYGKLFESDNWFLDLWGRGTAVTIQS
eN49P7-FRv1-23 IgG1, sequence (VL, as listed by the source, chain 2 of 2): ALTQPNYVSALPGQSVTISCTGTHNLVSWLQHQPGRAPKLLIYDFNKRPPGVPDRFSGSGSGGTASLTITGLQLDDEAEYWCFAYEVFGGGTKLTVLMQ

| Substance | Kd [1] | koff [1] | kon [1] | Kd [2] | koff [2] | kon [2] | Kd [3] | koff [3] | kon [3] |
| --- | --- | --- | --- | --- | --- | --- | --- | --- | --- |
| HIV gp120 93TH057 (clade AE) (natural protein) | 29 nM | 0.0015 s⁻¹ | 51000 M⁻¹ s⁻¹ | 19 nM | 0.0022 s⁻¹ | 120000 M⁻¹ s⁻¹ | – | – | – |
| HIV gp120 6041.v3 (clade AC) (natural protein) | 24 nM | 0.001 s⁻¹ | 44000 M⁻¹ s⁻¹ | 190 nM | 0.0026 s⁻¹ | 14000 M⁻¹ s⁻¹ | 100 nM | 0.0032 s⁻¹ | 31000 M⁻¹ s⁻¹ |
| HIV gp120 BJOX2000 (clade BC) (natural protein) | 50 nM | 0.00092 s⁻¹ | 18000 M⁻¹ s⁻¹ | > 1000 nM | 0.0025 s⁻¹ | 280 M⁻¹ s⁻¹ | > 1000 nM | 0.0024 s⁻¹ | 680 M⁻¹ s⁻¹ |
| HIV gp120 CAP45 (clade C) (natural protein) | 31 nM | 0.0031 s⁻¹ | 100000 M⁻¹ s⁻¹ | 140 nM | 0.0017 s⁻¹ | 12000 M⁻¹ s⁻¹ | – | – | – |
| HIV gp120 CH119 (clade BC) (natural protein) | 20 nM | 0.00053 s⁻¹ | 27000 M⁻¹ s⁻¹ | 110 nM | 0.0008 s⁻¹ | 7400 M⁻¹ s⁻¹ | – | – | – |
| HIV gp120 CNE8 (clade AE) (natural protein) | 47 nM | 0.0011 s⁻¹ | 24000 M⁻¹ s⁻¹ | 15 nM | 0.0013 s⁻¹ | 88000 M⁻¹ s⁻¹ | 73 nM | 0.00079 s⁻¹ | 11000 M⁻¹ s⁻¹ |
| HIV gp120 Ce1176 (clade C) (natural protein) | 17 nM | 0.00069 s⁻¹ | 42000 M⁻¹ s⁻¹ | 63 nM | 0.00059 s⁻¹ | 9400 M⁻¹ s⁻¹ | – | – | – |
| HIV gp120 IAVI-C22 (clade C) (natural protein) | 65 nM | 0.00092 s⁻¹ | 14000 M⁻¹ s⁻¹ | > 1000 nM | 0.0014 s⁻¹ | 200 M⁻¹ s⁻¹ | 230 nM | 0.0011 s⁻¹ | 4900 M⁻¹ s⁻¹ |
| HIV gp120 TRO.11 (clade B) (natural protein) | 44 nM | 0.00074 s⁻¹ | 17000 M⁻¹ s⁻¹ | 120 nM | 0.0012 s⁻¹ | 9900 M⁻¹ s⁻¹ | – | – | – |

From article doi:10.1101/2025.10.22.684031
